Assay results as given in the supplement of paper PMC5998384.

Key:
HeLa Kyoto [1] = experiment: thermal stability score vs G1/S (z-score of summed log2 fold changes over temperatures); higher = more thermally stable than in G1/S
HeLa Kyoto [2] = experiment: melting temperature (median over replicates), in situ; higher = more thermally stable
HeLa Kyoto [3] = experiment: solubility change mitosis vs G1/S (difference of NP-40 vs SDS log2 ratios) (log2 ratio difference); higher = more soluble in mitosis
HeLa Kyoto [4] = experiment: solubility in G1/S (NP-40 vs SDS abundance) (log2 ratio); higher = more soluble; details: cell cycle stage: G1/S
[5] = cell cycle stage: early G1 (4.5 h after nocodazole release)
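For melting temperature (median over replicates), in situ in this document: HeLa Kyoto cells synchronized by double thymidine or nocodazole block, proteins quantified by TMT10plex mass spectrometry, three independent biological replicates.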
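For solubility change mitosis vs G1/S (difference of NP-40 vs SDS log2 ratios) in this document: synchronized HeLa Kyoto cells (double thymidine block for G1/S, nocodazole release for mitosis), protein amounts in NP-40 versus SDS lysates quantified by mass spectrometry, three biological replicates.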
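For solubility in G1/S (NP-40 vs SDS abundance) in this document: HeLa Kyoto cells arrested at G1/S by double thymidine block, proteins quantified by TMT10plex mass spectrometry in mild NP-40 versus SDS extracts, three biological replicates.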
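For thermal stability score vs G1/S (z-score of summed log2 fold changes over temperatures) in this document: synchronized HeLa Kyoto cells, proteins quantified by TMT10plex mass spectrometry, three biological replicates, mitosis taken 0.5 h after nocodazole release, G1/S directly after double thymidine block.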

| Sequence | thermal stability score (HeLa Kyoto [1]; [5]) | thermal stability score (HeLa Kyoto [1]; cell cycle stage: mitosis) | melting temperature (HeLa Kyoto [2]; cell cycle stage: G1/S) | melting temperature (HeLa Kyoto [2]; cell cycle stage: mitosis) | solubility change mitosis (log2) (HeLa Kyoto [3]) | solubility in G1/S (log2) (HeLa Kyoto [4]) |
| --- | --- | --- | --- | --- | --- | --- |
| MQGPPLLTAAHLLCVCTAALAVAPGPRFLVTAPGIIRPGGNVTIGVELLEHCPSQVTVKAELLKTASNLTVSVLEAEGVFEKGSFKTLTLPSLPLNSADEIYELRVTGRTQDEILFSNSTRLSFETKRISVFIQTDKALYKPKQEVKFRIVTLFSDFKPYKTSLNILIKDPKSNLIQQWLSQQSDLGVISKTFQLSSHPILGDWSIQVQVNDQTYYQSFQVSEYVLPKFEVTLQTPLYCSMNSKHLNGTITAKYTYGKPVKGDVTLTFLPLSFWGKKKNITKTFKINGSANFSFNDEEMKNVMDSSNGLSEYLDLSSPGPVEILTTVTESVTGISRNVSTNVFFKQHDYIIEFFDYTTVLKPSLNFTATVKVTRADGNQLTLEERRNNVVITVTQRNYTEYWSGSNSGNQKMEAVQKINYTVPQSGTFKIEFPILEDSSELQLKAYFLGSKSSMAVHSLFKSPSKTYIQLKTRDENIKVGSPFELVVSGNKRLKELSYMVVSRGQLVAVGKQNSTMFSLTPENSWTPKACVIVYYIEDDGEIISDVLKIPVQLVFKNKIKLYWSKVKAEPSEKVSLRISVTQPDSIVGIVAVDKSVNLMNASNDITMENVVHELELYNTGYYLGMFMNSFAVFQECGLWVLTDANLTKDYIDGVYDNAEYAERFMEENEGHIVDIHDFSLGSSPHVRKHFPETWIWLDTNMGYRIYQEFEVTVPDSITSWVATGFVISEDLGLGLTTTPVELQAFQPFFIFLNLPYSVIRGEEFALEITIFNYLKDATEVKVIIEKSDKFDILMTSNEINATGHQQTLLVPSEDGATVLFPIRPTHLGEIPITVTALSPTASDAVTQMILVKAEGIEKSYSQSILLDLTDNRLQSTLKTLSFSFPPNTVTGSERVQITAIGDVLGPSINGLASLIRMPYGCGEQNMINFAPNIYILDYLTKKKQLTDNLKEKALSFMRQGYQRELLYQREDGSFSAFGNYDPSGSTWLSAFVLRCFLEADPYIDIDQNVLHRTYTWLKGHQKSNGEFWDPGRVIHSELQGGNKSPVTLTAYIVTSLLGYRKYQPNIDVQESIHFLESEFSRGISDNYTLALITYALSSVGSPKAKEALNMLTWRAEQEGGMQFWVSSESKLSDSWQPRSLDIEVAAYALLSHFLQFQTSEGIPIMRWLSRQRNSLGGFASTQDTTVALKALSEFAALMNTERTNIQVTVTGPSSPSPVKFLIDTHNRLLLQTAELAVVQPTAVNISANGFGFAICQLNVVYNVKASGSSRRRRSIQNQEAFDLDVAVKENKDDLNHVDLNVCTSFSGPGRSGMALMEVNLLSGFMVPSEAISLSETVKKVEYDHGKLNLYLDSVNETQFCVNIPAVRNFKVSNTQDASVSIVDYYEPRRQAVRSYNSEVKLSSCDLCSDVQGCRPCEDGASGSHHHSSVIFIFCFKLLYFMELWL [CD109] | -0.942 | 1.58 | 57.6 °C | 63.2 °C | -0.257 | -0.179 |
| MWSGRKLGSSGGWFLRVLGPGGCNTKAARPLISSAVYVKNQLSGTLQIKPGVFNEYRTIWFKSYRTIFSCLNRIKSFRYPWARLYSTSQTTVDSGEVKTFLALAHKWWDEQGVYAPLHSMNDLRVPFIRDNLLKTIPNHQPGKPLLGMKILDVGCGGGLLTEPLGRLGASVIGIDPVDENIKTAQCHKSFDPVLDKRIEYRVCSLEEIVEETAETFDAVVASEVVEHVIDLETFLQCCCQVLKPGGSLFITTINKTQLSYALGIVFSEQIASIVPKGTHTWEKFVSPETLESILESNGLSVQTVVGMLYNPFSGYWHWSENTSLNYAAYAVKSRVQEHPASAEFVLKGETEELQANACTNPAVHEKLKK [COQ3] | -0.812 | -0.988 | 55.3 °C | 56.3 °C | -0.0133 | 0.345 |
| MSAIQAAWPSGTECIAKYNFHGTAEQDLPFCKGDVLTIVAVTKDPNWYKAKNKVGREGIIPANYVQKREGVKAGTKLSLMPWFHGKITREQAERLLYPPETGLFLVRESTNYPGDYTLCVSCDGKVEHYRIMYHASKLSIDEEVYFENLMQLVEHYTSDADGLCTRLIKPKVMEGTVAAQDEFYRSGWALNMKELKLLQTIGKGEFGDVMLGDYRGNKVAVKCIKNDATAQAFLAEASVMTQLRHSNLVQLLGVIVEEKGGLYIVTEYMAKGSLVDYLRSRGRSVLGGDCLLKFSLDVCEAMEYLEGNNFVHRDLAARNVLVSEDNVAKVSDFGLTKEASSTQDTGKLPVKWTAPEALREKKFSTKSDVWSFGILLWEIYSFGRVPYPRIPLKDVVPRVEKGYKMDAPDGCPPAVYEVMKNCWHLDAAMRPSFLQLREQLEHIKTHELHL [CSK] | -0.12 | 0.74 | 49.3 °C | 49.8 °C | -0.139 | 0.0872 |
| MAATALLEAGLARVLFYPTLLYTLFRGKVPGRAHRDWYHRIDPTVLLGALPLRSLTRQLVQDENVRGVITMNEEYETRFLCNSSQEWKRLGVEQLRLSTVDMTGIPTLDNLQKGVQFALKYQSLGQCVYVHCKAGRSRSATMVAAYLIQVHKWSPEEAVRAIAKIRSYIHIRPGQLDVLKEFHKQITARATKDGTFVISKT [PTPMT1] | -0.395 | -0.764 | 51.8 °C | 51.2 °C | -0.0676 | -0.268 |
| MELDSALEAPSQEDSNLSEELSHSAFGQAFSKILHCLARPEARRGNVKDAVLKDLGDLIEATEFDRLFEGTGARLRGMPETLGQVAKALEKYAAPSKEEEGGGDGHSEAAEKAAQVGLLFLKLLGKVETAKNSLVGPAWQTGLHHLAGPVYIFAITHSLEQPWTTPRSREVAREVLTSLLQVTECGSVAGFLHGENEDEKGRLSVILGLLKPDLYKESWKNNPAIKHVFSWTLQQVTRPWLSQHLERVLPASLVISDDYQTENKILGVHCLHHIVLNVPAADLLQYNRAQVLYHAISNHLYTPEHHLIQAVLLCLLDLFPILEKTLHWKGDGARPTTHCDEVLRLILTHMEPEHRLLLRRTYARNLPAFVNRLGILTVRHLKRLERVIIGYLEVYDGPEEEARLKILETLKLLMQHTWPRVSCRLVVLLKALLKLICDVARDPNLTPESVKSALLQEATDCLILLDRCSQGRVKGLLAKIPQSCEDRKVVNYIRKVQQVSEGAPYNGT [TTI2] | 0.152 | 0.904 | 50.5 °C | 49.7 °C | -0.201 | 0.208 |
| MAAAAAAAAAAGAAGGRGSGPGRRRHLVPGAGGEAGEGAPGGAGDYGNGLESEELEPEELLLEPEPEPEPEEEPPRPRAPPGAPGPGPGSGAPGSQEEEEEPGLVEGDPGDGAIEDPELEAIKARVREMEEEAEKLKELQNEVEKQMNMSPPPGNAGPVIMSIEEKMEADARSIYVGNVDYGATAEELEAHFHGCGSVNRVTILCDKFSGHPKGFAYIEFSDKESVRTSLALDESLFRGRQIKVIPKRTNRPGISTTDRGFPRARYRARTTNYNSSRSRFYSGFNSRPRGRVYRGRARATSWYSPY [PABPN1] | 1.6 | 2.2 | 48.9 °C | 50.5 °C | 0.441 | 0.016 |
| MAAPLELSCWGGGWGLPSVHSESLVVMAYAKFSGAPLKVNVIDNTWRGSRGDVPILTTEDDMVSQPAKILNFLRKQKYNADYELSAKQGADTLAYIALLEEKLLPAVLHTFWVESDNYFTVTKPWFASQIPFPLSLILPGRMSKGALNRILLTRGQPPLYHLREVEAQIYRDAKECLNLLSNRLGTSQFFFGDTPSTLDAYVFGFLAPLYKVRFPKVQLQEHLKQLSNLCRFCDDILSSYFRLSLGGISPAGQETVDANLQKLTQLVNKESNLIEKMDDNLRQSPQLPPRKLPTLKLTPAEEENNSFQRLSP [MTX3] | -1.88 | -1.18 | 51.4 °C | 53 °C | 0.0458 | 0.0969 |
| MAFVTRQFMRSVSSSSTASASAKKIIVKHVTVIGGGLMGAGIAQVAAATGHTVVLVDQTEDILAKSKKGIEESLRKVAKKKFAENLKAGDEFVEKTLSTIATSTDAASVVHSTDLVVEAIVENLKVKNELFKRLDKFAAEHTIFASNTSSLQITSIANATTRQDRFAGLHFFNPVPVMKLVEVIKTPMTSQKTFESLVDFSKALGKHPVSCKDTPGFIVNRLLVPYLMEAIRLYERGDASKEDIDTAMKLGAGYPMGPFELLDYVGLDTTKFIVDGWHEMDAENPLHQPSPSLNKLVAENKFGKKTGEGFYKYK [HADH] | -2.07 | -1.2 | 53.4 °C | 53.7 °C | 0.00527 | 0.267 |
